Measured values taken from the supplement of paper PMC10126150.
± gives the standard deviation of the averaged measurements.

Test system: ATP
Assay: switch fluorescence ratio, 500 uM ATP over buffer (Cy3 cluster intensity, sum of 5 cycles each) (fold (ratio)); higher = stronger signal-on switching upon ATP binding; sequences stand for … in TCGTCGGCAGCGTCAGATGTGTATAAGAGACAGTTTTTTTTTTTTTTTTTTTTTTTTT…TC
Conditions: aptamer strand: ATP DNA aptamer (quencher-CACCTGGGGGAGTATTGCGGAGGAAGG + anchor), 100 nM annealed; ATP concentration: 500 uM
Summary of the method: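 Clusters carrying Cy3-labelled switching strands on a modified Illumina MiSeq flow-cell were annealed to 100 nM quencher-labelled ATP aptamer and imaged in selection buffer. They were imaged again after 15 min with 500 uM ATP at 22 °C, over five buffer/ATP cycles with NaOH stripping and re-annealing in between. For each cluster, the fluorescence ratio is the summed Cy3 intensity of the target cycles divided by that of the buffer cycles, averaged per switch-domain sequence. Clusters outside 100-1000 RFU were left out.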
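Further: ATP exposure 15 min at 22 °C before imaging.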

Row | Sequence | switch fluorescence ratio
1 | ATAGTAATCT | 0.993 ± 0.056
2 | ATAGTACAGG | 1.08 ± 0.011
3 | ATAGTACTCG | 1.06 ± 0.057
4 | ATAGTAGGTT | 1.01 ± 0.017
5 | ATAGTCAATT | 0.993 ± 0.071
6 | ATAGTCACAT | 1.02 ± 0.021
7 | ATAGTCAGTA | 1.01 ± 0.019
8 | ATAGTCCAGC | 0.988 ± 0.035
9 | ATAGTCTACG | 1.02 ± 0.042
10 | ATAGTGGAGA | 1.01 ± 0.024
11 | ATAGTGGGAG | 0.992 ± 0.04
12 | ATAGTGGGTC | 1.04 ± 0.025
13 | ATAGTGTGTG | 1.004 ± 0.008
14 | ATAGTTAGGT | 1.03 ± 0.029
15 | ATAGTTGGTG | 0.994 ± 0.029
16 | ATAGTTGTGA | 0.987 ± 0.024
17 | ATATAAAATG | 0.986 ± 0.0046
18 | ATATAAAGGA | 1.01 ± 0.024
19 | ATATAAATGT | 1.019 ± 0.0066
20 | ATATAAATTA | 1.01 ± 0.05
21 | ATATAAGGGA | 1 ± 0.019
22 | ATATAAGGGC | 1 ± 0.074
23 | ATATACATGG | 1.01 ± 0.035
24 | ATATACTAGA | 1.03 ± 0.049
25 | ATATAGAAAG | 1.02 ± 0.045
26 | ATATAGTAAT | 0.9842 ± 0.0078

Row | Sequence | switch fluorescence ratio
27 | ATATATAAGT | 0.972 ± 0.011
28 | ATATATACTG | 1.05 ± 0.071
29 | ATATATGCGG | 1.11 ± 0.12
30 | ATATATGCTC | 1.01 ± 0.016
31 | ATATATTGTA | 1.001 ± 0.0059
32 | ATATATTTTG | 0.972 ± 0.03
33 | ATATCAGCAT | 1.065 ± 0.005
34 | ATATCGACGT | 1 ± 0.013
35 | ATATCTAAGT | 0.9984 ± 0.0034
36 | ATATCTTAGT | 1.017 ± 0.00089
37 | ATATCTTTCG | 1.02 ± 0.014
38 | ATATGACGGT | 0.98 ± 0.029
39 | ATATGAGGCG | 1.05 ± 0.042
40 | ATATGAGTGC | 0.951 ± 0.07
41 | ATATGGATGG | 0.986 ± 0.025
42 | ATATGGGGGC | 0.972 ± 0.059
43 | ATATGGGTTT | 1.01 ± 0.033
44 | ATATGGTCAT | 0.9719 ± 0.0021
45 | ATATGTGATG | 0.997 ± 0.021
46 | ATATGTGGGC | 0.9577 ± 0.0068
47 | ATATTAAAAG | 0.9959 ± 0.0043
48 | ATATTAAGTT | 1.01 ± 0.003
49 | ATATTACTAG | 0.989 ± 0.035
50 | ATATTAGAAC | 1.01 ± 0.0027
51 | ATATTAGAGG | 0.998 ± 0.037
52 | ATATTAGGGT | 1.01 ± 0.042

Row | Sequence | switch fluorescence ratio
53 | ATATTAGTCT | 1.001 ± 0.0035
54 | ATATTATGGA | 1 ± 0.02
55 | ATATTATTCT | 1.005 ± 0.0096
56 | ATATTATTGA | 0.9818 ± 0.0049
57 | ATATTCAGGG | 1.01 ± 0.031
58 | ATATTCGCTC | 1.12 ± 0.1
59 | ATATTCTTGG | 0.9852 ± 0.0026
60 | ATATTGCCTA | 1.003 ± 0.0074
61 | ATATTGTCGT | 1.011 ± 0.0053
62 | ATATTGTTGT | 0.997 ± 0.057
63 | ATATTGTTTG | 1.01 ± 0.1
64 | ATATTTATAG | 0.9944 ± 0.0071
65 | ATATTTCACT | 1.03 ± 0.012
66 | ATATTTGACA | 1.01 ± 0.026
67 | ATATTTGGGG | 1.02 ± 0.046
68 | ATATTTGGTT | 0.985 ± 0.034
69 | ATATTTTAAG | 0.994 ± 0.034
70 | ATCAAAGGTT | 1.03 ± 0.051
71 | ATCAAGGGGG | 0.992 ± 0.034
72 | ATCAAGGGTG | 1.11 ± 0.013
73 | ATCAAGGTTC | 0.9917 ± 0.0095
74 | ATCAAGTCTT | 0.99 ± 0.016
75 | ATCAATATGT | 0.996 ± 0.029
76 | ATCAATTGTC | 1.07 ± 0.025
77 | ATCACCGCGC | 1.59 ± 0.093
78 | ATCACTGGGC | 1.1 ± 0.092

Row | Sequence | switch fluorescence ratio
79 | ATCACTGGGT | 0.9976 ± 0.0051
80 | ATCAGATGAT | 1.0009 ± 0.00017
81 | ATCAGCTGTG | 1.02 ± 0.024
82 | ATCAGGAAGT | 0.992 ± 0.062
83 | ATCAGGCGGA | 1 ± 0.045
84 | ATCAGGGTGG | 0.987 ± 0.032
85 | ATCAGGGTTT | 1.005 ± 0.0057
86 | ATCAGTAAAA | 1.01 ± 0.035
87 | ATCAGTGATG | 1 ± 0.046
88 | ATCAGTGGTT | 0.974 ± 0.013
89 | ATCAGTGTGG | 0.967 ± 0.038
90 | ATCATACCGG | 1 ± 0.035
91 | ATCATACGGA | 1.034 ± 0.0088
92 | ATCATATGGA | 0.985 ± 0.037
93 | ATCATCGCTA | 1.094 ± 0.0084
94 | ATCATCGGGA | 1.01 ± 0.013
95 | ATCATGACTG | 1.015 ± 0.005
96 | ATCATGAGTC | 0.972 ± 0.03
97 | ATCATGCTGT | 0.9976 ± 0.0017
98 | ATCATGGGGT | 0.984 ± 0.041
99 | ATCATGGGTA | 0.9757 ± 0.0069
100 | ATCATGTGCA | 0.9627 ± 0.0073
101 | ATCATGTGGG | 0.999 ± 0.018
102 | ATCATGTGTA | 1.01 ± 0.04
103 | ATCATTGAGA | 0.9972 ± 0.0043
104 | ATCATTGGG | 1.014 ± 0.008

Row | Sequence | switch fluorescence ratio
105 | ATCATTTGGG | 0.997 ± 0.039
106 | ATCATTTTTA | 1.01 ± 0.02
107 | ATCATTTTTG | 1 ± 0.025
108 | ATCCCAGGGT | 1.89 ± 0.076
109 | ATCCGAACGG | 1.03 ± 0.048
110 | ATCCGCGATT | 4.88 ± 1.1
111 | ATCCGCGGTG | 1.18 ± 0.075
112 | ATCCGGGCGC | 1.08 ± 0.1
113 | ATCCGTATGT | 1.05 ± 0.014
114 | ATCCTAGGGC | 1.007 ± 0.0095
115 | ATCCTCTTGC | 1.09 ± 0.036
116 | ATCCTTAAGG | 0.961 ± 0.026
117 | ATCCTTCTAA | 1.05 ± 0.018
118 | ATCCTTGATA | 1.03 ± 0.016
119 | ATCGAAAGGG | 1.01 ± 0.054
120 | ATCGAAGGCA | 0.9862 ± 0.008
121 | ATCGAATAGG | 0.9872 ± 0.0022
122 | ATCGAATCCT | 1.09 ± 0.012
123 | ATCGAATTTT | 1 ± 0.061
124 | ATCGAGCCGG | 0.98 ± 0.049
125 | ATCGAGTCTA | 0.953 ± 0.017
126 | ATCGAGTGCT | 0.952 ± 0.016
127 | ATCGAGTTAG | 0.978 ± 0.012
128 | ATCGCATTG | 1.24 ± 0.34
129 | ATCGCCAGGC | 1.014 ± 0.0044
130 | ATCGCCGGGG | 1.02 ± 0.045

Row | Sequence | switch fluorescence ratio
131 | ATCGCGGGGT | 0.979 ± 0.025
132 | ATCGCTGGGT | 1.01 ± 0.019
133 | ATCGGAGCGG | 1.02 ± 0.031
134 | ATCGGAGGGA | 0.986 ± 0.028
135 | ATCGGATTAT | 0.969 ± 0.047
136 | ATCGGATTGG | 1.03 ± 0.072
137 | ATCGGCCATG | 0.988 ± 0.011
138 | ATCGGCTGTG | 0.983 ± 0.022
139 | ATCGGGAGGT | 1.04 ± 0.061
140 | ATCGGGCGTA | 1.01 ± 0.044
141 | ATCGGGGTC | 0.983 ± 0.027
142 | ATCGGGGTCA | 1.01 ± 0.027
143 | ATCGGGGTTG | 0.958 ± 0.017
144 | ATCGGGTTTG | 0.977 ± 0.03
145 | ATCGGTAACT | 1.01 ± 0.032
146 | ATCGGTAGGT | 0.99 ± 0.019
147 | ATCGGTCAGC | 0.982 ± 0.022
148 | ATCGGTGAAG | 0.9925 ± 0.0058
149 | ATCGGTTCGG | 0.9934 ± 0.0053
150 | ATCGTAATGG | 1.04 ± 0.038
151 | ATCGTACGGC | 1.01 ± 0.026
152 | ATCGTATTCA | 1.01 ± 0.027
153 | ATCGTGATCC | 1.016 ± 0.0094
